Patent publication US20260159561A1 (MyNeuroCure Oy, priority 2017, published 2026)
Entries after “also recorded” stand apart in the source; their conditions may differ.

What was measured:
[1] = tested on: Huntington's disease rat model (quinolinic acid); experiment: Quinolinic acid Huntington's disease rat model, rotarod and grip strength; format: in vivo; conditions: single intrastriatal injection 2 weeks after QA, vs QA+PBS
Source text: Adult Wistar rats received a single, unilateral intrastriatal injection of quinolinic acid (QA) 225 nmol into coordinates: A/P+0.7; L/M+2.8; D/V −6.0. Quinolinic acid is a toxin that induces striatal neuron death by an excitotoxic process. […] Rats were randomized to groups before the treatments started. Rotarod and grip strength tests were done weekly.

rat 6-OHDA model of PD = experiment: Neurorestoration study in 6-OHDA model of PD, amphetamine-induced rotations; format: in vivo; conditions: intrastriatal injection 2 weeks after 6-OHDA lesioning; 2, 4, 6 and 8 weeks post-lesion
Procedure: In neurorestoration model of PD, rats were lesioned with 6-OHDA as described before (Voutilainen et al., 2009; Voutilainen et al., 2011, Penttinen et al., 2016). Briefly, rats received under isoflurane anesthesia unilateral stereotaxic injections of 3×2 μg 6-OHDA (in 10 degree angle) into the left striatum (coordinates relative to bregma and dura A/P+1.6; L/M −2.8; D/V −6, A/P 0.0: L/M −4.1; D/V −5.5 and A/P −1.2; L/M: −4.5; D/V −5.5). Two weeks later, rats were divided to groups based on their amphetamine-induced rotation results (size of the lesion). […] In the reference experiment after division of rats into groups, osmotic minipumps were inserted subcutaneously and cannula was placed into lesioned striatum. The minipump delivered MANF4 (i.e. MANF peptide CKGC, see WO2013034805), GDNF or vehicle solution into striatum for two weeks after which the minipump and cannula were removed. […] The number of amphetamine-induced (2.5 mg/kg, i.p.) full (360°) ipsi- and contralateral turns were recorded for 120 mins after a 30 min habituation period. The results are expressed as net ipsilateral turns to the lesion side Exclusion criterion was Mean (net rotations)±2×STDEV.

[2] = tested on: rat model of cerebral ischemia
Procedure: Male Sprague Dawley rats (weight 230-270 g, Envigo, Netherlands) were used for the experiments which were conducted according to the 3R principles of EU directive 2010/63/EU on the care and use of experimental animals, local laws and regulations, and were approved by the national Animal Experiment Board of Finland All experiments were performed in a blinded manner and the rats were assigned to different treatment groups randomly. Rats were anesthesized with chloral hydrate (0.4 g/kg, i.p). […] Briefly, the bilateral CCAs were identified and isolated through a ventral midline cervical incision. Rats were placed in stereotaxic apparatus and a craniotomy was made in the right hemisphere. The right (MCA) was ligated with a 10-0 suture and bilateral common carotids (CCA) were ligated with non-traumatic arterial clamps for 60 minutes. After sixty minutes of ischemia, the suture around the MCA and arterial clips on CCAs were removed to introduce a reperfusional injury. After recovery from anesthesia, the rats were returned to their home cage. Body temperatures during and after surgery were maintained at 37° C.
To test the neuroprotective effect of subcutaneous C-CDNF, 50 μg of C-CDNF was given 30-50 min before dMCA occlusion and immediately after reperfusion in volume of 100 μl s.c. Phosphate-buffered saline (PBS) was used as vehicle control. The rats were euthanized 2 days after dMCAo to measure the infarction volume by 2% 2,3,5-triphenyltetrazolium chloride (TTC; Sigma Aldrich, St. Louis, MO) staining. Rats were decapitated and the brains were removed and sliced into 2.0-mm-thick sections using an acrylic rat brain block. The brain slices were incubated in a 2% TTC solution (Sigma, St. Louis, MO, USA) for 15 min at room temperature and then transferred into a 4% paraformaldehyde solution for fixation. The area of infarction in each slice was measured with a digital scanner and ImageJ software. The volume of infarction in each animal was obtained from the product of average slice thickness (2 mm) and sum of infarction areas in rostral brain slices examined. […]

dopaminergic neurons = experiment: Survival of TH-positive dopaminergic neurons in midbrain cultures; format: cell-based; conditions: added to culture medium, 5 days, E13/E13.5 NMRI mouse midbrain floors
Procedure: To study the dopamine neurons (Yu et al., 2008; Yu and Arumae, 2008), the midbrain floors were dissected from the ventral mesencephali of 13.5-d-old NMRI strain mouse embryos. Tissues were incubated with 0.5% trypsin (ICN Biomedical), then mechanically dissociated using a large fire-polished Pasteur pipette. […] Same amount of the neurons were plated to each well at the beginning of the experiments. The cultures without added neurotrophic factors served as the negative control. As the midbrain cultures contain several neuronal types, the cultures were fixed and immunostained with the antibodies to tyrosine hydroxylase (TH) (Millipore), a specific marker for the dopaminergic neurons. Images of each well were scanned by CellInsight™ and immunopositive neurons were counted by CellProfiler and CellProfiler analyst software. Data are expressed as a percentage of GDNF-maintained TH-positive neurons. All experiments were repeated at least three times on the independent cultures. The results were expressed as the mean the SEM and were tested for the significance by either one-way ANOVA and Tukey's post hoc test or by two-tailed Student's t-test. The null hypothesis was rejected at P<0.05.

SOD1-G93A mice = experiment: SOD1-G93A mouse ALS model, 4-week chronic intracerebroventricular infusion; format: in vivo; conditions: i.c.v. infusion 1.5 μg/24 h for 4 weeks, vs PBS
Source text: Transgenic SOD1 G93A mice served as a transgenic mouse model for ALS in this study. Transgenic mice containing various human SOD1 mutations develop progressive neurodegeneration and motoneuron (MN) death, providing an animal model that has been commonly used for preclinical trials and that has greatly contributed to the understanding of FALS pathogenesis (Gurney et al., 1994). […] In these mice hind limb weakness and tremulous movement appear as initial symptoms at 8-10 week of age, followed by major symptoms such as progressive motor paralysis and neurogenic amyotrophy (Shibata 2001). […] Transgenic expression was analyzed by DNA tail tests and PCR, using specific oligonucleotides and conditions as done previously by others (see homepage Jackson Lab). […]
In the chronic infusion experiment, 12-week-old SOD1 mice were inserted a brain infusion cannula (connected via catheter-tubing to an Alzet osmotic minipump) to the right lateral ventricle under isoflurane anesthesia. […] Motor behavior was evaluated with rotarod. Mice were evaluated for clinical signs and body weight changes.
Clinical scoring for SOD1 mice was done using instructions from Jackson laboratory. […] Animals were scored by lifting them gently by the base of their tails and observing them for tremors, stiffness and their ability to extend their limbs. […]

B1: C-CDNF: Human C-CDNF, SEQ ID NO: 4: C-terminal domain of mature CDNF, amino acid 101 to 161; recombinant, Histidine tag at C-terminus (protein, listed as Homo sapiens)
chain: KYEKTLDLASVDLRKMRVAELKQILHSWGEECRACAEKTDYVNLIQELAPKYAATHPKTEL
- rotarod latency to fall (motor behavior) ([1]; equimolar to CDNF 10 micrograms): improved motor behavior statistically significantly; also recorded: improved motor performance in both rotarod and grip strength tests
- grip strength (left paw) ([1]; 3 and 5 week time points): significantly improved performance at 3 and 5 week time points; also recorded: improved motor performance in both rotarod and grip strength tests
- cumulative amphetamine-induced rotations (rat 6-OHDA model of PD): significantly reduces the cumulative amount of amphetamine-induced rotations
- infarction volume ([2]; 50 μg s.c. before dMCA occlusion and after reperfusion, rostral part of cerebral cortex, 2 days after dMCAo): decreases the infarction volume
- lesion size, smaller than in vehicle treated rats ([2]; 50 μg s.c. before occlusion and after reperfusion, vs PBS): about 50%
- blood pressure and heart rate ([2]; rat, in vivo): does not affect blood pressure and heart rate
- TH-positive neurons, percentage of GDNF-maintained neurons (dopaminergic neurons): protects dopaminergic neurons in vitro
- rotarod performance (motor coordination) (SOD1-G93A mice; significant week 13 until week 19): improves motor coordination
- relative changes in body weight (SOD1-G93A mice; weeks 18 and 19): Significant differences between treatments in body weight
